According to patent US20130171179A1 (OREGON HEALTH AND SCIENCE UNIVERSITY, published 2013):
Primed or numbered codes have the meaning given here. Ends that are not written are not given here. FITC′ = fluorescein isothiocyanate label

Experiments:
[1] = molecular target: T1, recombinant IAg7 (rIAg7; RTL450), single polypeptide comprising the β1 and α1 domains of the MHC class II … (mouse); experiment: disulfide capture, Coomassie stained SDS-PAGE
T1 construct: no peptide attached; Internal C17-C79 disulfide bond; also called empty rIAg7; rIA7
T1 chain: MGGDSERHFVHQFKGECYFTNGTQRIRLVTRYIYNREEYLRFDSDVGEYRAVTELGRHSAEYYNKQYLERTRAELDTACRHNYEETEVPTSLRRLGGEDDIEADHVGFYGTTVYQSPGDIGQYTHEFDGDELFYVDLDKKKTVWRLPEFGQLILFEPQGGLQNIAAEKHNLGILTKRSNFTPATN
Procedure: (§1) A mixture of 10:1 peptide:rIAg7 at 200 μg/ml, 100 mM NaPO₄ pH 6.5; 150 mM NaCl; 0.05% SDS; and 0.01% NaN₃ was produced. After inspecting the mixture for any precipitation, reactions were incubated at 37° C. for 60 hours. Analysis of ability of redox capture conditions to facilitate peptide capture by MHC was performed as follows: 20 μl aliquots at various time points were mixed with an equal volume of 2× electrophoresis sample buffer (1% glycerol, 500 mM Tris, 0.2% SDS, and bromophenol blue at pH 8.0). Samples were then placed on ice for 30 minutes, heated at 90° C. for 6 minutes with or without β-mercaptoethanol and separated by 10-20% SDS-PAGE followed by Coomassie Blue staining to visualize the proteins. Proteins were quantified by densitometry scanning using Molecular Imager FX 5 and Quantity One software (Bio-Rad, Hercules, Calif.).
A recombinant form of IAg7 (rIAg7) comprising the β1 and α1 domains of the MHC class II molecule expressed as a single polypeptide (rIAg7; RTL450-series) was designed. IAg7-derived constructs are readily produced in E. coli, are well-behaved in aqueous buffers, and bind antigenic peptides. All MHC class II β1 domains comprise a disulfide bond between cysteine 17 and cysteine 79. Insulin B:9-23 is an antigenic peptide that binds IAg7 and comprises a cysteine residue at position 19. […]

[2] = molecular target: T2, recombinant human DR2 (β1α1 RTL) (human); experiment: disulfide capture, SDS-PAGE
T2 construct: Single-chain two-domain MHC class II polypeptide, with no peptide attached before loading; also called rDR2; DR2 RTL
T2 chain: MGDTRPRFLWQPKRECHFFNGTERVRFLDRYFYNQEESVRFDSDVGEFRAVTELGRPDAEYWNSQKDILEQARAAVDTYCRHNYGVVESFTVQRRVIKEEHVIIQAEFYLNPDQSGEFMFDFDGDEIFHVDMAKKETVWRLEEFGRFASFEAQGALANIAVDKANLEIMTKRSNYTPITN

[3] = molecular target: T3, recombinant murine I-A^b (β1α1 RTL) (mouse); experiment: disulfide capture, SDS-PAGE
T3 construct: Single-chain two-domain MHC class II polypeptide, with no peptide attached before loading; also called rI-A^b RTL; rIAb
T3 chain: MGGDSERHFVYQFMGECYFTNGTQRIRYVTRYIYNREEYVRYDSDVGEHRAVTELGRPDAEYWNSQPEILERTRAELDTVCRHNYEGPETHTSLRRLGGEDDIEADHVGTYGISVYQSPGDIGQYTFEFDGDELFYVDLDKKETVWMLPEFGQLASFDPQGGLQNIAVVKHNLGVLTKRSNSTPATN

[4] = molecular target: T1, recombinant IAg7 (rIAg7; RTL450), …; experiment: disulfide capture of FITC-labeled peptides, SDS-PAGE
[5] = molecular target: T1, recombinant IAg7 (rIAg7; RTL450), …; experiment: disulfide capture of amino-terminal truncated peptides, SDS-PAGE
Procedure: as §1
Coomassie stained bands (29 kD and 31 kD, as indicated) were quantified to determine an initial rate of capture (FIG. 3). Insulin B:16-23 peptide (FITC-[…]; SEQ ID NO: 1) and rIAg7 were mixed (10:1, peptide:rIAg7) in 100 mM NaPO₄, pH 6.5, 150 mM NaCl, 0.05% SDS, and 0.01% NaN₃ and allowed to incubate for the indicated time.

B1: insulin B:9-23 peptide (peptide)
peptide: SHLVEALYLVCGERG
notes: Synthetic peptide; also called Insulin B:9-23 (WT); InsB:9-23
- binding result [1]: binds

Binder: MEVGWYRSCFSRVVHLYRNGK (also called hMOG35-55 P43C variant) [MOG35-55 P43C variant]
- binding result [2]: binds

Binder: MEVGWYRCPFSRVVHLYRNGK (also called hMOG35-55 S42C variant) [MOG35-55 S42C variant]
- binding result [2]: binds

B2: S45C mutated mouse MOG35-55 (peptide)
peptide: MEVGWYRPPFCRVVHLYRNGK
notes: also called mMOG35-55 S45C variant; mouse MOG35-55 S45C variant
- binding result [3]: binds

B3: FITC-labeled insulin B:9-23 peptide, wild-type sequence (C19) (peptide)
peptide: {FITC′}-SHLVEALYLVCGERG
notes: also called Wild-type insulin B:9-23 peptide (C19); amino-terminal FITC-coupled B:9-23
- binding result [4]: binds

Binder: {FITC′}-SHLVEALYLCAGERG [FITC-labeled insulin B:9-23 C18 variant (cysteine moved to position 18)]
- binding result [4]: binds

Binder: {FITC′}-SHLVEALYLVACERG [FITC-labeled insulin B:9-23 C20 variant (cysteine moved to position 20)]
- binding result [4]: binds

Binder: {FITC′}-YLVCGERG (The C-terminal 8 amino acids of B:9-23) [FITC-labeled 8-mer insulin B:16-23 peptide]
- binding result [5]: binds
